For assay [1], the target named is T1, microtubules polymerised from porcine brain tubulin (GMPCPP-stabilised seeds, dynamic GDP lattice, or … (porcine, UniProt P02550 1-451, part of the tubulin labelled with Rhodamine or HiLyte 647)); part biotinylated (surface-immobilised microtubules) | part of the tubulin labelled with Rhodamine or HiLyte 647; part biotinylated …). Nature of the assay: FRAP, microtubule-microtubule overlap (median).

Assay [2] has as its target T1, microtubules polymerised from porcine …. As to the kind of experiment: FRAP, actin-microtubule overlap (median), with actin filaments.

Data on one molecule can be found in article PMC12402178 (2025).

T1 sequence (P02550 whole entry, chain 1 of 2): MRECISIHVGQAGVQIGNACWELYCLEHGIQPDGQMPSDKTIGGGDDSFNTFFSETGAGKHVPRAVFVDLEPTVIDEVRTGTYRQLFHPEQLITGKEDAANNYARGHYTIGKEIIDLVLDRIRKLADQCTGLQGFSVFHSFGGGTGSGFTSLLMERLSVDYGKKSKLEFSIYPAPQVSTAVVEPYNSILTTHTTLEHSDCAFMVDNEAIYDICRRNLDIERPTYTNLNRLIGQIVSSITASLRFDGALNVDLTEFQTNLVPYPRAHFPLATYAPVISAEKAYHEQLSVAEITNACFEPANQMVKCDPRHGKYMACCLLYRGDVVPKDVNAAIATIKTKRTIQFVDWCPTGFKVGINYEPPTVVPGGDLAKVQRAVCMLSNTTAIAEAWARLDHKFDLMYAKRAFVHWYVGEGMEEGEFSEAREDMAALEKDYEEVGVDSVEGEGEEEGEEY
T1 sequence (chain, as listed by the source, chain 2 of 2): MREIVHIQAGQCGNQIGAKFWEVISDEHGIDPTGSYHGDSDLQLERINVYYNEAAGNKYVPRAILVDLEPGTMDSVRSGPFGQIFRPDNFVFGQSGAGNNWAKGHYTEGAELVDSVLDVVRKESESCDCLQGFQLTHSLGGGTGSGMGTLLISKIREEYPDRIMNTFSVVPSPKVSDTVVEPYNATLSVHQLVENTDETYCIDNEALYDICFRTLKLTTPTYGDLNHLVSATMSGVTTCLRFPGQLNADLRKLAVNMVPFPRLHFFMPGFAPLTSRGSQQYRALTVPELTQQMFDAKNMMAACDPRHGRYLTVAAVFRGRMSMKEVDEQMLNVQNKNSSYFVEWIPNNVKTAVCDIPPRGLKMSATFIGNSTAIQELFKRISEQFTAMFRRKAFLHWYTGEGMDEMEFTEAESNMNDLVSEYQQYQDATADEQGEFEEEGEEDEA

B1: Anillin-GFP (full-length human anillin, isoform 2, 1087 amino acids) (natural protein)
chain: MDPFTEKLLERTRARRENLQRKMAERPTAAPRSMTHAKRARQPLSEASNQQPLSGGEEKSCTKPSPSKKRCSDNTEVEVSNLENKQPVESTSAKSCSPSPVSPQVQPQAADTISDSVAVPASLLGMRRGLNSRLEATAASSVKTRMQKLAEQRRRWDNDDMTDDIPESSLFSPMPSEEKAASPPRPLLSNASATPVGRRGRLANLAATICSWEDDVNHSFAKQNSVQEQPGTACLSKFSSASGASARINSSSVKQEATFCSQRDGDASLNKALSSSADDASLVNASISSSVKATSPVKSTTSITDAKSCEGQNPELLPKTPISPLKTGVSKPIVKSTLSQTVPSKGELSREICLQSQSKDKSTTPGGTGIKPFLERFGERCQEHSKESPARSTPHRTPIITPNTKAIQERLFKQDTSSSTTHLAQQLKQERQKELACLRGRFDKGNIWSAEKGGNSKSKQLETKQETHCQSTPLKKHQGVSKTQSLPVTEKVTENQIPAKNSSTEPKEVIREIEMSVDDDDINSSKVINDLFSDVLEEGELDMEKSQEEMDQALAESSEEQEDALNISSMSLLAPLAQTVGVVSPESLVSTPRLELKDTSRSDESPKPGKFQRTRVPRAESGDSLGSEDRDLLYSIDAYRSQRFKETERPSIKQVIVRKEDVTSKLDEKNNAFPCQVNIKQKMQELNNEINMQQTVIYQASQALNCCVDEEHGKGSLEEAEAERLLLIATGKRTLLIDELNKLKNEGPQRKNKASPQSEFMPSKGSVTLSEIRLPLKADFVCSTVQKPDAANYYYLIILKAGAENMVATPLASTSNSLNGDALTFTTTFTLQDVSNDFEINIEVYSLVQKKDPSGLDKKKKTSKSKAITPKRLLTSITTKSNIHSSVMASPGGLSAVRTSNFALVGSYTLSLSSVGNTKFVLDKVPFLSSLEGHIYLKIKCQVNSSVEERGFLTIFEDVSGFGAWHRRWCVLSGNCISYWTYPDDEKRKNPIGRINLANCTSRQIEPANREFCARRNTFELITVRPQREDDRETLVSQCRDTLCVTKNWLSADTKEERDLWMQKLNQVLVDIRLWQPDACYKPIGKP
As for B1, the koff turned out to be 0.29 s⁻¹ in assay [1] and 0.513 s⁻¹ in assay [2].

The term koff denotes the rate constant with which the complex falls apart. Low values mean slow dissociation, high ones fast dissociation.
